Values of other authors as cited in patent US20260297164A1, “ANTI-FIBROTIC PEPTIDES AND USES THEREOF” (Deackt, Inc., priority 2021, published 2026).

Tested on: CD148
Details: extracellular proteins; cited from earlier work

B1: syndecan-2: known extracellular protein that can bind to CD148 (protein, UniProt P34741 19-201, looked up)
Syndecan-2: ESRAELTSDKDMYLDNSSIEEASGVYPIDDDDYASASGSGADEDVESPELTTSRPLPKILLTSAAPKVETTTLNIQNKIPAQTKSPEETDKEKVHLSDSERKMDPAEEDTNVYTEKHSDSLFKRTEVLAAVIAGGVIGFLFAIFLILLLVYRMRKKDEGSYDLGERKPSSAAYQKAPTKEFYA
binding to CD148 and activation of PTP activity: can bind to CD148 and activate PTP activity
